From patent US11787839B2, “Targeting α2δ-1-bound glutamate receptors for treating diseases and disorders” (Board of Regents, The University of Texas System, priority 2017, dated 2023)
Entries after “also recorded” stand apart in the source; their conditions may differ.

Assays:
[1] = test system: GluN1/GluN2A or GluN1/GluN2B NMDARs with or without α2δ-1 in HEK293 cells; assay: Whole-cell recording of NMDAR currents in HEK293 cells; assay type: cell-based, rat; set-up: α2δ-1 co-expression-induced increase in the NMDAR current density / NMDAR currents in cells expressing GluN1/GluN2A or GluN1/GluN2B alone: dose or concentration left out as unconfirmed
Excerpt: Cell culture and transfection: HEK293 cells (American Type Culture Collection, Manassas, Va.) were maintained in Dulbecco's modified Eagle medium (DMEM) (#10-017-CV, Corning, Manassas, Va.) supplemented with 10% fetal bovine serum (#F4135, Sigma-Aldrich) and penicillin/streptomycin (#30-002-CI, Corning). Cells were passaged after they reached a confluence of 80-90%, approximately every 2 days. HEK293 cells were transfected using PolyJet reagents (#SL100688, SignaGen Laboratories, Gaithersburg, Md.) at a GluN1/GluN2/α2δ-1 ratio of 1:3:1 (the DNA:PolyJet ratio was 1:3).
Whole-cell recording of NMDAR currents in HEK293 cells: Whole-cell recording was performed using a fire-polished pipette (3-5 MΩ) pulled from borosilicate glass and filled with an intracellular solution containing (in mM) 135 CsF, 2 MgCl2, 0.5 CaCl2, 5 EGTA, 2 Mg-ATP and 10 HEPES (pH, 7.25; 285 mOsmol/L). The extracellular solution contained (in mM) 160 NaCl, 2.5 KCl, 0.2 CaCl2, 10 HEPES, and 10 glucose (pH, 7.35; 300-310 mOsmol/L). Whole-cell currents were recorded with an EPC-10 amplifier (HEKA Instruments, Lambrecht, Germany) at a holding potential of −60 mV. Signals were filtered at 1 kHz, digitized at 10 kHz and acquired using the Pulse program (HEKA Instruments). After the whole-cell configuration was established, the cell membrane capacitance and series resistance were electronically compensated for. Glycine (10 μM) and NMDA (300 μM) were used to elicit NMDAR currents. For voltage-dependent Mg^2+ block experiments, the conductance-voltage relation of NMDARs was assessed when 2 mM MgCl2 was added to the extracellular solution. The sensitivity of NMDARs to Mg^2+ was estimated by fitting current-voltage relationships to a Boltzmann function (Zhou et al., 2012). All HEK293 cell recording experiments were performed at 25° C.

α2δ-1-NMDAR interaction = assay: Luminescence resonance energy transfer (LRET) in HEK293 cells; assay type: binding, rat
Excerpt: Luminescence resonance energy transfer (LRET) measurements: For constructs used for LRET measurements, the extracellular non-disulfide-bonded cysteines were mutated to serines so that they were not labeled with the maleimide reactive fluorophore. For the GluN1 subunit, Cys22 and Cys459 were mutated; for the GluN2A subunit, Cys231, Cys399 and Cys461 were mutated. For measurement of LRET between GluN1 and α2δ-1, Cys22 was not mutated and was used as the site for attachment of the thiol-reactive fluorophore. Additionally, for quantitative analysis of the background, a thrombin recognition sequence (amino acids LVPRGS) was inserted immediately at the C-terminal to the cysteine (Kim and Chung, 1992). […]
Cysteines at the GluN1 and GluN2A sites labeled with thiol-reactive terbium chelate served as donor fluorophore sites, and YFP fused to α2δ-1 served as the acceptor fluorophore. […] The sample was excited at 337 nm, and emission was detected at 527 nm in a QuantaMaster QM3-SS system with Fluorescan software (Photon Technology International, Edison, N.J.). […] Data were analyzed with Origin 8.6 software (OriginLab Corp., Northampton, Mass.). Each sample was scanned 3 times for each ligated condition, and each scan was recorded as an average of 99 sweeps. […] The distance between the donor and acceptor was calculated using the Förster equation (Kim and Chung, 1992).

[2] = target: T1, NMDARs of RVLM-projecting PVN neurons (Rattus norvegicus, UniProt P35439+Q00959+Q00960); assay: Recordings of RVLM-projecting PVN neurons in slices of WKY rats and SHRs; assay type: cell-based
T1 construct: from tissue; host or cells: rat hypothalamic slices containing the PVN (Sprague-Dawley, WKY, SHR) and synaptosomes made from them
T1 sequence (Q00959 20-1464 limits assumed, other chains not shown): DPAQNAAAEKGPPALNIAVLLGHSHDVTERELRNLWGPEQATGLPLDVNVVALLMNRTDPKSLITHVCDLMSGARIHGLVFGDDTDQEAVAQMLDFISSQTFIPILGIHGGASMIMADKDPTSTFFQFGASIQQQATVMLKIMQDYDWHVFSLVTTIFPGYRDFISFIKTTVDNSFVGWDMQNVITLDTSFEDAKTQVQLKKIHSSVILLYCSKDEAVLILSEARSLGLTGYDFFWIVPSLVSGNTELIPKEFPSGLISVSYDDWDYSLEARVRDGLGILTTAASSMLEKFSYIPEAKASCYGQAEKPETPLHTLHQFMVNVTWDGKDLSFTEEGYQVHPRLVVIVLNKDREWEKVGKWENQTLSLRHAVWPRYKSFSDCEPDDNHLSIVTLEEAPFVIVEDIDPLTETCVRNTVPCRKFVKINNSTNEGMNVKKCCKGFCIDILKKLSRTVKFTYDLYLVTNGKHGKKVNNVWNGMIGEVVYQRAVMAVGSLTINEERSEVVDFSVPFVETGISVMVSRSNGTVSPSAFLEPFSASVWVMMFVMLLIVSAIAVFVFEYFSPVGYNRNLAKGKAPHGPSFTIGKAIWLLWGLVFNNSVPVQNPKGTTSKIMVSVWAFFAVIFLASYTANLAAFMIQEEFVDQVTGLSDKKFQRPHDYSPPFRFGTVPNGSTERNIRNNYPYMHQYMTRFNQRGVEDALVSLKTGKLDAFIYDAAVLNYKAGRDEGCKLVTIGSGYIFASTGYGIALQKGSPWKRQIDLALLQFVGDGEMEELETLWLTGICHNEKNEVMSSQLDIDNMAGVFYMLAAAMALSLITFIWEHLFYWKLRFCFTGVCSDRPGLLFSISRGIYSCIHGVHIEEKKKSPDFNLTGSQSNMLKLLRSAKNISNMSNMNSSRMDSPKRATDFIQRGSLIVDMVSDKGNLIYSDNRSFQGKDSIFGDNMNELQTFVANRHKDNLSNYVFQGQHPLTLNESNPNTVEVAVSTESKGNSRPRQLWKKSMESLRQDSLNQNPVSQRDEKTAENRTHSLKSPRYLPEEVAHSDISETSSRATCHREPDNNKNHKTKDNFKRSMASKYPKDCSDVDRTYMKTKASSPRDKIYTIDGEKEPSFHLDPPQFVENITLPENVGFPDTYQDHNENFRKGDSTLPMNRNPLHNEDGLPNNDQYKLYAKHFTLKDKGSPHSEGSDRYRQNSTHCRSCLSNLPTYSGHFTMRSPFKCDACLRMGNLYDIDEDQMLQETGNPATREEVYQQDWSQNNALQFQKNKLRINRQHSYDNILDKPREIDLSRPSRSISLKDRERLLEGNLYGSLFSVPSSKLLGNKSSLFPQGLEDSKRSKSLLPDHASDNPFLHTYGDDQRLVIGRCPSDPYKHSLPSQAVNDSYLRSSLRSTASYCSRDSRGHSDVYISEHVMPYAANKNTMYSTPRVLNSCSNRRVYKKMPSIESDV
T1 sequence (Q00960 27-1482, other chains not shown): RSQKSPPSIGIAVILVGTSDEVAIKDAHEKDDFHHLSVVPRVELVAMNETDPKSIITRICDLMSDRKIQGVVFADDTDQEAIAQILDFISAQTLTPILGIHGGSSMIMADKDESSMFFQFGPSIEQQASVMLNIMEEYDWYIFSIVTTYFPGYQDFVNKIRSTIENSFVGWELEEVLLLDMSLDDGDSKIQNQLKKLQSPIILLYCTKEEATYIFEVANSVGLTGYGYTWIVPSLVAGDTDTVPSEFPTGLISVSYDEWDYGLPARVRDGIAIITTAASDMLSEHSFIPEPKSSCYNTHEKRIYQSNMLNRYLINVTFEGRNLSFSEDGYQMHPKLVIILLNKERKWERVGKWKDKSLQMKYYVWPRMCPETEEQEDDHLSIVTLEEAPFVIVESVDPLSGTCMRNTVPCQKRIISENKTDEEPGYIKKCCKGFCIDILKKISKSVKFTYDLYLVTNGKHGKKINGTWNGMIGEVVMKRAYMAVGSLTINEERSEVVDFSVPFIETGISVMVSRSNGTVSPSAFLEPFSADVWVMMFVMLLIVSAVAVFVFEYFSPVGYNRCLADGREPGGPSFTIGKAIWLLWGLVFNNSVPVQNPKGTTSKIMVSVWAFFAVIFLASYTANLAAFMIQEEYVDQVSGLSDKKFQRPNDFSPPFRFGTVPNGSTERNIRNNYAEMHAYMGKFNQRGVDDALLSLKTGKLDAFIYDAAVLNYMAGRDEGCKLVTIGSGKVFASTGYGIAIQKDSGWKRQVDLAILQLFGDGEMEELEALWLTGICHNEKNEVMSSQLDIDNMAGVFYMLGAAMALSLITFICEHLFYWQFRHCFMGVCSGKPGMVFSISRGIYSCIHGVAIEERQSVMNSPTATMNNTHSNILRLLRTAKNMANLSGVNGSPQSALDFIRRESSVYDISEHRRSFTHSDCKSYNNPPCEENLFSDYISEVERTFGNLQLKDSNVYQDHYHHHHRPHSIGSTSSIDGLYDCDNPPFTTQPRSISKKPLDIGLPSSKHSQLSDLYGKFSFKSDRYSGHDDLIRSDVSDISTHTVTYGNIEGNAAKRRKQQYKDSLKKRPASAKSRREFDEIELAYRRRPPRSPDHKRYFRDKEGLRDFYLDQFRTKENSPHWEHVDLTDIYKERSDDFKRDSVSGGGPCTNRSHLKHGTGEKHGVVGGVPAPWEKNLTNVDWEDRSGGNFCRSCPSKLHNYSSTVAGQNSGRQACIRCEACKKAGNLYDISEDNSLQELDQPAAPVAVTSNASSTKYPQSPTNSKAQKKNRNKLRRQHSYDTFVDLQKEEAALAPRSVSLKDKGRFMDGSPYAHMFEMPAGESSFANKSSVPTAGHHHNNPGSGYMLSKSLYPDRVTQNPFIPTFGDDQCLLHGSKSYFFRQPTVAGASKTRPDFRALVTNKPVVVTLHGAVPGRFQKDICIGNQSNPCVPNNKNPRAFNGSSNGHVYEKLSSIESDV

NCC1(CC(=O)O)CCCCC1 [gabapentin]
α2δ-1 co-expression-induced increase in the NMDAR current density ([1]; HEK293): completely reversed | NMDAR currents in cells expressing GluN1/GluN2A or GluN1/GluN2B alone ([1]; HEK293 without α2δ-1): had no effect | α2δ-1-reduced voltage-dependent Mg2+ block of GluN1/GluN2A NMDARs ([1]; at −40 and −60 mV): reversed this effect | LRET signal with the R217A mutant of α2δ-1 (α2δ-1-NMDAR interaction; YFP-α2δ-1 R217A mutant): failed to alter; also recorded: had no effect | LRET signal between terbium-labeled NMDAR subunit and YFP-α2δ-1 (α2δ-1-NMDAR interaction; wild-type α2δ-1, terbium-labeled GluN2A or GluN1): completely abrogated; also recorded: loss of the LRET signal; also recorded: diminished the interaction

YGRKKRRQRRRVSGLNPSLWSIFGLQFILLWLVSGSRHYLW (a2d1 peptide) [α2δ-1Tat peptide, 30-amino-acid peptide mimicking the C-terminal domain of α2δ-1 fused to the cell-penetrating peptide Tat]
puff NMDA currents of labelled PVN neurons ([2]; SHRs): restored | ratio of NMDAR-EPSCs to AMPAR-EPSCs ([2]; SHRs): normalized | baseline frequency of mEPSCs of labelled PVN neurons ([2]; SHRs, AP5 50 μmol L-1, gabapentin 100 μmol L-1, peptides 1 μmol L-1, 60 min): completely normalized | amplitude of evoked NMDAR-EPSCs of labelled PVN neurons ([2]; SHRs, gabapentin 100 μmol L-1, peptides 1 μmol L-1, 60 min): fully normalized | amplitude of puff NMDA currents ([2]; WKY rats): had no effect | frequency or amplitude of mEPSCs of labelled PVN neurons ([2]; WKY rats): had no effect | ratio of NMDAR-EPSCs to AMPAR-EPSCs ([2]; WKY rats): had no effect | amplitude of evoked AMPAR-EPSCs of labelled PVN neurons ([2]; WKY rats or SHRs): had no effect | amplitude of evoked NMDAR-EPSCs of labelled PVN neurons ([2]; WKY rats, gabapentin 100 μmol L-1, peptides 1 μmol L-1, 60 min): had no effect
